Results on 25 molecules are retold here after patent US20210355194A1 (TWIST BIOSCIENCE, published 2021).

Where two headings read alike, the source gives them in different places.

Experiment [1] concerns the target SARS-COV2-S1 RBD (mouse IgG2Fc tag) (SARS-CoV-2, UniProt P0DTC2 319-537).
In experiment [2] the target is T1, Acro SARS-CoV-2 (COVID-19) S1 protein (SARS-CoV-2, UniProt P0DTC2 16-685).
T1 construct: also called SARS-CoV-2 S1
Put plainly: SPR.

Experiment [3] concerns the target SARS-CoV-2 spike on live SARS-CoV-2 virus (SARS-CoV-2, UniProt P0DTC2 14-1273). Put plainly: cell-based or functional assay.
The target in experiment [4] is SARS-COV2-S1 RBD (mouse IgG2Fc tag) (SARS-CoV-2, UniProt P0DTC2 319-537). Put plainly: FACS, S1 RBD-mFc on Vero E6 (ACE2). Background: Flow cytometry measures light scatter and fluorescence of single cells or particles in a stream.
Experiment [5] concerns the target T2, Acro SARS-CoV-2 (COVID-19) S1 protein (SARS-CoV-2, UniProt P0DTC2 16-685).
T2 construct: also called SARS-CoV-2 S1
The experiment can be described thus: SPR. This is another data set of the same source. A general note: SPR reads the build-up and loss of mass on a sensor chip optically.

Experiment [6] has as its target T3, COVID S1 RBD Fc fusion (Antigen 1) (SARS-CoV-2, UniProt P0DTC2 319-541).
T3 construct: domain: S1 RBD
The experiment can be described thus: phage ELISA. For orientation: An ELISA detects its analyte on a solid surface through an enzyme-linked reagent.

In experiment [7] the target is T4, COVID S1 RBM Fc fusion (Antigen 2) (SARS-CoV-2, UniProt P0DTC2 437-508).
T4 construct: domain: S1 RBM
Put plainly: phage ELISA.

The target in the next experiment is T5, SARS-CoV-2 S1 protein (SARS-CoV-2, UniProt P0DTC2 16-685).
T5 construct: also called SARS-CoV-2 Spike Glycoprotein S1; S1 (subunit 1)
The experiment can be described thus: phage ELISA screen on S1, mean.

B1: variant 6-44 (Fc fusion)
VHH: EVQLVESGGGLVQPGGSLRLSCAASGGTFGVYHMGWFRQAPGKEREFIGRITWTDGSTYYADSVKGRFTISADNSKNTAYLQMNSLKPEDTAVYYCFGLLEVYDMTFDYWGQGTLVTVSS
Take B1: in experiment [1], 0.97 nM corresponded to half-maximal inhibition (IC50). In addition, the Kd in experiment [2] worked out at 8.2 nM. In addition, the “EC80” value in experiment [3] is 3.16 µg/mL.

B2: variant 6-54 (Fc fusion)
VHH: EVQLVESGGGLVQPGGSLRLSCAASGFEFENHWMGWFRQAPGKEREYVAHITAGGLSNYADSVKGRFTISADNSKNTAYLQMNSLKPEDTAVYYCGRHWGIYDSSGFSSFDYWGQGTLVTVSS
For the molecule B2, the IC50 in experiment [1] was determined as 8.9 nM.

B3: variant 6-34 (Fc fusion)
VHH: EVQLVESGGGLVQPGGSLRLSCAASGSAFRSNAMGWFRQAPGKEREFVAHISWSSKSTYYADSVKGRFTISADNSKNTAYLQMNSLKPEDTAVYYCATYCSSTSCFDYWGQGTLVTVSS
For B3, in experiment [1], the midpoint of inhibition, the IC50, lay at 8.24 nM. Besides, binding in experiment [2] was characterised by a dissociation constant (Kd) of 21.3 nM.

B4: variant 6-39 (Fc fusion)
VHH: EVQLVESGGGLVQPGGSLRLSCAASGFTFSPSWMGWFRQAPGKEREFVAAISWSGGSTAYADSVKGRFTISADNSKNTAYLQMNSLKPEDTAVYYCHGLGEGDPYGDYEGYFDLWGQGTLVTVSS
On to B4, for which half-maximal inhibition in experiment [1] (IC50) was put at 1.53 nM. The same molecule displayed a Kd in experiment [2] of 11.3 nM.

B5: variant 6-57 (Fc fusion)
VHH: EVQLVESGGGLVQPGGSLRLSCAASGLTFDDHSMGWFRQAPGKEREFVAAVPLSGNTYYADSVKGRFTISADNSKNTAYLQMNSLKPEDTAVYYCASFSGGPADFDYWGQGTLVTVSS
In turn, B5 had an IC50 in experiment [1] of 3.13 nM. This counts as single-digit nanomolar.

B6: variant 5-34 (Fc fusion)
VHH: EVQLVESGGGLVQPGGSLRLSCAASGRTFSRYIMGWFRQAPGKEREFVAAISWSGGDNTYYADSVKGRFTISADNSKNTAYLQMNSLKPEDTAVYYCAAYRIVVGGTSPGDWRWGQGTLVTVSS
notes: VHH-Fc
For the molecule B6, the “Competition Factor” value in experiment [4] came to 5.69.

B7: variant 6-38 (Fc fusion)
VHH: EVQLVESGGGLVQPGGSLRLSCAASGNTFSGGFMGWFRQAPGKEREFVAVISSLSSKSYADSVKGRFTISADNSKNTAYLQMNSLKPEDTAVYYCAKVDSGYDYWGQGTLVTVSS
In experiment [1], B7 gave an IC50 of 1.94 nM. In experiment [2], binding was put at a Kd of 26.6 nM.

B8: variant 6-1 (Fc fusion)
VHH: EVQLVESGGGLVQPGGSLRLSCAASGRTFGNYNMGWFRQAPGKEREFVATINSLGGTSYADSVKGRFTISADNSKNTAYLQMNSLKPEDTAVYYCARVDYYMDVWGQGTLVTVSS
B8 registered an IC50 in experiment [1] of 15.8 nM.

B9: variant 5-37 (Fc fusion)
VHH: EVQLVESGGGLVQPGGSLRLSCAASGSTFSINAMGWFRQAPGKEREFVGGISRSGATTNYADSVKGRFTISADNSKNTAYLQMNSLKPEDTAVYYCAADGVPEYSDYASGPVWGQGTLVTVSS
notes: VHH-Fc
For the molecule B9, the Kd in experiment [5] was 30.2 nM. For the same molecule, the “Competition Factor” value in experiment [4] was 8.19.

B10: variant 6-67 (Fc fusion)
VHH: EVQLVESGGGLVQPGGSLRLSCAASGSFSNYAMGWFRQAPGKEREFVAAISSSGALTSYADSVKGRFTISADNSKNTAYLQMNSLKPEDTAVYYCWIVGPGPLDGMDVWGQGTLVTVSS
In the case of B10, in experiment [1], the IC50 amounted to 3.8 nM. This lies in the single-digit nanomolar range.

B11: variant 5-1 (Fc fusion)
VHH: EVQLVESGGGLVQPGGSLRLSCAASGGTFSSIGMGWFRQAPGKEREFVAAISWDGGATAYADSVKGRFTISADNSKNTAYLQMNSLKPEDTAVYYCAKEDVGKPFDWGQGTLVTVSS
notes: VHH-Fc
Take B11: binding in experiment [5] was characterised by a dissociation constant (Kd) of 15.1 nM. For the same molecule, the “Competition Factor” value in experiment [4] was found to be 10.

B12: variant 6-10 (Fc fusion)
VHH: EVQLVESGGGLVQPGGSLRLSCAASGSIASIHAMGWFRQAPGKEREFVAAISRSGGFGSYADSVKGRFTISADNSKNTAYLQMNSLKPEDTAVYYCARDDKYYDSSGYPAYFQHWGQGTLVTVSS
In experiment [1], B12 returned an IC50 of 1.44 nM. The molecule also displayed a Kd in experiment [2] of 29.7 nM.

B13: variant 6-30 (Fc fusion)
VHH: EVQLVESGGGLVQPGGSLRLSCAASGFAFGDSWMGWFRQAPGKEREFVATINWSGVTAYADSVKGRFTISADNSKNTAYLQMNSLKPEDTAVYYCARADGYFDYWGQGTLVTVSS
Molecule B13 returned an IC50 in experiment [1] of 2.94 nM. In experiment [2], this molecule came in with a Kd of 11.8 nM.

B14: variant 6-7 (Fc fusion)
VHH: EVQLVESGGGLVQPGGSLRLSCAASGFTFSSYWMGWFRQAPGKEREFVATINWSGVTAYADSVKGRFTISADNSKNTAYLQMNSLKPEDTAVYYCARADDYFDYWGQGTLVTVSS
For B14, the IC50 in experiment [1] stood at 1.53 nM.

B15: variant 6-77 (Fc fusion)
VHH: EVQLVESGGGLVQPGGSLRLSCAASGFTFDRSWMGWFRQAPGKEREFVAAVTEGGTTSYADSVKGRFTISADNSKNTAYLQMNSLKPEDTAVYYCARADYDFDYWGQGTLVTVSS
Regarding B15, the IC50 in experiment [1] stood at 4.04 nM. Moreover, in experiment [2], binding was characterised by a dissociation constant (Kd) of 24.6 nM.

B16: variant 6-47 (Fc fusion)
VHH: EVQLVESGGGLVQPGGSLRLSCAASGRTFSMHAMGWFRQAPGKERELVASITYGGNINYADSVKGRFTISADNSKNTAYLQMNSLKPEDTAVYYCAKEGYYDSTGYRTYFQQWGQGTLVTVSS
In turn, B16 showed an IC50 in experiment [1] of 5.86 nM. In other words, the single-digit nanomolar range.

B17: variant 3-10 (antibody, V domains shown)
VH: EVQLLESGGGLVQPGGSLRLSCAASGFTFRSHAMSWVRQAPGKGLEWVSSISGGGASTYYADSVKGRFTISRDNSKNTLYLQMNSLRAEDTAVYYCARVKYLTTSSGWPRPYFDNWGQGTLVTVSS
VL: DIQMTQSPSSLSASVGDRVTITCRASQSIRKYLNWYQQKPGKAPKLLIYASSTLQRGVPSRFSGSGSGTDFTLTISSLQPEDFATYYCQQSLSTPFTFGGGTKVEIK
As for B17, in experiment [6], the “specificity ELISA, fold over background” value is 1.2 fold over background and the “specificity ELISA, percent binding relative to Acro S1” value is 97.2%. In experiment [7], the “specificity ELISA, fold over background” value amounted to 1.1 fold over background and the “specificity ELISA, percent binding relative to Acro S1” value stood at 93.3%.

B18: variant 6-40 (Fc fusion)
VHH: EVQLVESGGGLVQPGGSLRLSCAASGFTFSDYWMGWFRQAPGKERELVARVWWNGGSAYYADSVKGRFTISADNSKNTAYLQMNSLKPEDTAVYYCAREVLRQQVVLDYWGQGTLVTVSS
In the case of B18, it took 1.36 nM to reach half-maximal inhibition in experiment [1] (IC50). This lies in the single-digit nanomolar range.

B19: 2-4 (antibody, V domains shown)
VH: EVQLLESGGGLVQPGGSLRLSCAASGFTFSDFAMAWVRQAPGKGLEWVSAISGSGDITYYADSVKGRFTISRDNSKNTLYLQMNSLRAEDTAVYYCAREADGLHSPWHFDLWGQGTLVTVSS
VL: DIQMTQSPSSLSASVGDRVTITCRASQSIDTYLNWYQQKPGKAPKLLIYAASALASGVPSRFSGSGSGTDFTLTISSLQPEDFATYYCQQSYSAPPYTFGQGTKVEIK
notes: also called variant 2-4
For B19, the “ELISA(Avg)” value with SARS-CoV-2 S1 protein was 15.5 fold over background.

B20: variant 5-20 (Fc fusion)
VHH: EVQLVESGGGLVQPGGSLRLSCAASGRTIVPYTMGWFRQAPGKERELVAAISPSAFTEYADSVKGRFTISADNSKNTAYLQMNSLKPEDTAVYYCAARRWGYDWGQGTLVTVSS
notes: VHH-Fc
On to B20, for which, in experiment [5], the Kd came to 14.3 nM. Moreover, in experiment [4], the “Competition Factor” value stood at 12.4.

B21: variant 2-9 (antibody, V domains shown)
VH: EVQLLESGGGLVQPGGSLRLSCAASGFTFPRYAMSWVRQAPGKGLEWVSTISGSGSTTYYADSVKGRFTISRDNSKNTLYLQMNSLRAEDTAVYYCARLIDAFDIWGQGTLVTVSS
VL: DIQMTQSPSSLSASVGDRVTITCRASQRIGTYLNWYQQKPGKAPKLLIYAASNLEGGVPSRFSGSGSGTDFTLTISSLQPEDFATYYCQQNYSTTWTFGQGTKVEIK
Take B21: in experiment [6], the “specificity ELISA, fold over background” value stood at 24.3 fold over background and the “specificity ELISA, percent binding relative to Acro S1” value was 101%. In experiment [7], the “specificity ELISA, fold over background” value worked out at 0.8 fold over background and the “specificity ELISA, percent binding relative to Acro S1” value is 3.5%.

B22: variant 6-41 (Fc fusion)
VHH: EVQLVESGGGLVQPGGSLRLSCAASGFTFSTSWMGWFRQAPGKEREFVASINEYGGRNYADSVKGRFTISADNSKNTAYLQMNSLKPEDTAVYYCAGLHYYYDSSGYNPTEYYGMDVWGQGTLVTVSS
In the case of B22, in experiment [1], the IC50 was determined as 6.6 nM.

B23: variant 6-18 (Fc fusion)
VHH: EVQLVESGGGLVQPGGSLRLSCAASGLTFRNYAMGWFRQAPGKEREFIAGMMWSGGTTTYADSVKGRFTISADNSKNTAYLQMNSLKPEDTAVYYCAREGYYYDSSGYLNYFDYWGQGTLVTVSS
Molecule B23 had an IC50 in experiment [1] of 12.3 nM. Besides, in experiment [2], the Kd amounted to 30.1 nM.

B24: variant 6-45 (Fc fusion)
VHH: EVQLVESGGGLVQPGGSLRLSCAASGNMFSINAMGWFRQAPGKEREFVTLISWSSGRTSYADSVKGRFTISADNSKNTAYLQMNSLKPEDTAVYYCASLGYCSGGSCFDYWGQGTLVTVSS
Molecule B24 had an IC50 in experiment [1] of 1.16 nM. Besides, the Kd in experiment [2] was 17.5 nM. Further, in experiment [3], the 80% effect level (EC80) was put at 4.02 µg/mL.

B25: variant 6-65 (Fc fusion)
VHH: EVQLVESGGGLVQPGGSLRLSCAASGLPFSTLHMGWFRQAPGKEREFVASLSIFGATGYADSVKGRFTISADNSKNTAYLQMNSLKPEDTAVYYCWMYYYDSSGYYGNYYYGMDVWGQGTLVTVSS
For the molecule B25, in experiment [1], the midpoint of inhibition, the IC50, lay at 37.5 nM.

One may read the IC50 as the concentration at which inhibition is half-maximal. The low end stands for greater potency in that assay, the high end for weaker potency in that assay. The term Kd denotes the free concentration of one partner at which half of the binding sites on the other are occupied at equilibrium, for simple one-to-one binding. A high value points to a looser complex. By EC80 is commonly meant the point of the concentration-response curve where the effect stands at 80%.
